# Laboratory results from PMC5588548, “Suramin Inhibits Osteoarthritic Cartilage Degradation by Increasing Extracellular Levels of Chondroprotective Tissue Inhibitor of Metalloproteinases 3” (Molecular Pharmacology, 2017).
# Test system: HTB94 chondrosarcoma cells
# Assay type: cell-based
# Description: Cells (HTB94 chondrosarcoma cells, primary porcine chondrocytes, or human osteoarthritic chondrocytes) were plated overnight (6 × 10^5 cells per well of a 12-well plate) in DMEM containing 10% FCS and washed three times in serum-free DMEM.
# To evaluate endocytosis of exogenously added TIMP-3, cells were incubated with recombinant TIMP-3 (1 nM in 1.5 ml DMEM with 0.1% FCS) for 0–24 hours. Conditioned media were concentrated by precipitation with trichloroacetic acid [5% (v/v), 4°C, 18 hours]. After centrifugation (13,000 rpm, 4°C, 10 minutes), protein-containing pellets were resuspended in SDS sample buffer (30 µl), electrophoresed (7 µl) on a 10% polyacrylamide gel, and immunoblotted onto polyvinylidene fluoride. After blocking in 5% (m/v) BSA in Tris-buffered saline, TIMP-3 levels were analyzed using an M2 anti-FLAG antibody (Sigma-Aldrich), an alkaline phosphatase–conjugated anti-mouse secondary antibody (Promega, Southampton, UK), and a Western Blue stabilized substrate for alkaline phosphatase (Promega). Immunoblots were analyzed by densitometry using Phoretix 1D densitometry software (TotalLab, Newcastle-upon-Tyne, UK), and TIMP-3 remaining in the medium (mean ± S.D., n = 3) was calculated relative to pixel volume at a t of 0 hours (defined as 100%).
molecule,measurement,value
"TIMP-3: C-terminally FLAG-tagged human TIMP-3 expressed in human embryonic kidney 293 cells; endogenous metalloproteinase inhibitor (protein, UniProt P35625 24-211, looked up, C-terminal FLAG tag) Metalloproteinase inhibitor 3: CTCSPSHPQDAFCNSDIVIRAKVVGKKLVKEGPFGTLVYTIKQMKMYRGFTKMPHVQYIHTEASESLCGLKLEVNKYQYLLTGRVYDGKMYTGLCNFVERWDQLTLSQRKGLNYRYHLGCNCKIKSCYYLPCFVTSKNECLWTDMLSNFGYPGYQSKHYACIRQKGGYCSWYRGWAPPDKSIINATDP",half-life of TIMP-3 uptake from the medium,4.0 ± 1.3 h
